The series deals with T1, rLin28 (Lin28) (UniProt Q9H9Z2 1-209).
T1 sequence: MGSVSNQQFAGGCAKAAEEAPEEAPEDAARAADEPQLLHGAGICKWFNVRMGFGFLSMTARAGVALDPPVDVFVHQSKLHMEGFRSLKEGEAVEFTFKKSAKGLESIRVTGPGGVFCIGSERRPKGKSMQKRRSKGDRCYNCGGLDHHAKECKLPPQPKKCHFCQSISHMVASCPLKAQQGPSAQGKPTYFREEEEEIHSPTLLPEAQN
Nature of the series: EMSA.

B1: pre-let-7a-1 (structured_RNA)
RNA: GGGCUGAGGUAGUAGGUUGUAUAGUUUUAGGGUCACACCCACCACUGGGAGAUAACUAUACAAUCUACUGUCUUUCC
With B1, the affinity, expressed as Kd, was 1990 nM.

Values taken from PMC3333870.
